This series deals with the molecule itself. The experiment in a line: SEC-MALS. In general terms: Size exclusion chromatography separates by hydrodynamic size, large species first.

B1: VopL W3-C (residues 115-484: three WH2 motifs and the VCD) (domain or fragment, Vibrio parahaemolyticus, UniProt Q87GE5 115-484, looked up)
chain: NLSKGAPKSSSNSLDSVNEDHSKLMEQIRQGVKLKSATKSLSADKSSADAHSKLMEELLTGGRKLKKVATSDIPAPPPLPSASTSKSPDSRNALLSEIAGFSKDRLRKTGSLETLNSSQSKDKESFEPTTHERLLSEDLFKQSPKLSEQELDELANNLADYLFQAADIDWHQVISEKTRGLTTEEMAKSEHRYVQAFCREILKYPDCYKSADVASPESPKSGGGSVIDVALKRLQTGRERLFTTTDEKGNRELKKGDAILESAINAARMAISTEEKNTILSNNVKSATFEVFCELPCMDGFAEQNGKTAFYALRAGFYSAFKNTDTAKQDITKFMKDNLQAGFSGYSYQGLTNRVAQLEAQLAALSAKLS
As a reminder, the stoichiometry N is the number of molecules, sites or subunits per partner or assembly. As for B1, the “stoichiometry N” value amounted to 2.

These data come from PMC3168117 (Nature structural & molecular biology, 2011).
